We go through three molecules from patent US20190315842A1 (DUKE UNIVERSITY, published 2019).

“And” between values parts separate entries of the source, which are not always exact repeats. Identical values can stand only once. Where no end group is shown, it is not given here. The star is where a group is joined. Biotin = O=C1N[C@H]2[C@H](CS[C@H]2CCCCC(=O)*)N1

For assay [1], the target named is T1, sclerosis autoantigen (Scl-70) (UniProt P11387 2-765, limits assumed).
T1 sequence (looked up): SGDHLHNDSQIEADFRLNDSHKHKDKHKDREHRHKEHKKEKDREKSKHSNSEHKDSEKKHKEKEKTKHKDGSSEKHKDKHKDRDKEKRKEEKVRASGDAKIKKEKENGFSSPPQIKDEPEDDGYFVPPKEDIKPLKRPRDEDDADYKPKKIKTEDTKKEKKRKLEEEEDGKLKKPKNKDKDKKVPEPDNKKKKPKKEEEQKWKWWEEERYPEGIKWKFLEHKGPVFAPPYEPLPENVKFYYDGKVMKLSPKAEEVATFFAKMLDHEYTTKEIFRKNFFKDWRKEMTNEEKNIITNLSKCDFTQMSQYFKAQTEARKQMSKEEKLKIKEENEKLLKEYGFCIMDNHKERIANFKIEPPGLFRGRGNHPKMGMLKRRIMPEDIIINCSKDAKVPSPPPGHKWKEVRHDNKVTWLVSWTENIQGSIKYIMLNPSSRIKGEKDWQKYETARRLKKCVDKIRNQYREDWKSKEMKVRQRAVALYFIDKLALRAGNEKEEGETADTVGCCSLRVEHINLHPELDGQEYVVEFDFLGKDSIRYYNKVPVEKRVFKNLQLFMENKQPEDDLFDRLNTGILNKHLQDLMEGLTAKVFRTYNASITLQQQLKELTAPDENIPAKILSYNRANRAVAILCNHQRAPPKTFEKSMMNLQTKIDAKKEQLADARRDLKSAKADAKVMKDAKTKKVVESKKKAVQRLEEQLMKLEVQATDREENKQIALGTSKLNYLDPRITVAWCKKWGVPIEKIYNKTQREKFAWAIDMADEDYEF
In words: AtheNA Multi-Lyte ANA, Ab at 25 ug/ml.

Assay [2] deals with T2, GPPPPIDNGDITSFP(GGGK-biotin).
T2 construct: also called biotinylated 15-mer peptide; biotinylated 19-mer
T2 peptide: GPPPPIDNGDITSFPGGGK(Biotin)
The assay can be described thus: ELISA: biotinylated peptide captured on immobilized Neutravidin, antibody at 0.5 µg/ml, anti-human IgG-HRP/ABTS, OD 405 nm.

In assay [3] the target is T3, 15-mer peptide GPPPPIDNGDITSFP (SEQ ID NO: 114) (human).
T3 construct: Immobilized for SPR; also called parent peptide
T3 peptide: GPPPPIDNGDITSFP
The assay can be described thus: SPR (BIAcore), mAb at 25, 50 or 100 nM over immobilized 15-mer peptide.

In assay [4] the target is T4, Complement Factor H (CFH) protein, full-length (human, UniProt P08603 19-1231).
T4 construct: also called full-length CFH; native CFH
The assay can be described thus: immunoblot, SDS-PAGE under non-reducing conditions, anti-human IgG-HRP, chemiluminescence; lane numbers as in Table 10. (Immunoblotting shows a protein as a band on a membrane.)

Assay [5] deals with T5, reduced form of Complement Factor H (CFH), treated with TCEP (human, UniProt P08603 19-1231, disulfides reduced with 10 mM TCEP).
T5 construct: also called reduced CFH; reduced form of CFH
The assay can be described thus: immunoblot, SDS-PAGE under reducing conditions, anti-human IgG-HRP, chemiluminescence; lane numbers as in Table 10.

Assay [6] addresses T6, reduced SCR19-20 (human CFH short consensus repeat domains 19 and 20, reduced) (human, UniProt P08603 1107-1231, disulfides reduced with TCEP or reducing SDS-PAGE).
T6 construct: domain: SCR19-20; Same construct as m3, reduced
T6 sequence (looked up): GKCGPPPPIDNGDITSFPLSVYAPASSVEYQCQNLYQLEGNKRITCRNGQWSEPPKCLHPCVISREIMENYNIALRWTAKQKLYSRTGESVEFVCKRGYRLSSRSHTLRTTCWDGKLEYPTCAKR
The description is as above.

The target in assay [7] is T4, Complement Factor H (CFH) protein, …. The assay can be described thus: immunoblot, SDS-PAGE under non-reducing conditions, antibody at 0.5 µg/ml, anti-human IgG-HRP, chemiluminescence; lane numbers as in Table 10.
Assay [8] has as its target T5, reduced form of Complement Factor H …. The assay can be described thus: immunoblot, SDS-PAGE under reducing conditions, antibody at 0.5 µg/ml, anti-human IgG-HRP, chemiluminescence; lane numbers as in Table 10.
A further assay concerns the target T7, centromere B (CentB) (UniProt P07199 2-599).
T7 sequence (looked up): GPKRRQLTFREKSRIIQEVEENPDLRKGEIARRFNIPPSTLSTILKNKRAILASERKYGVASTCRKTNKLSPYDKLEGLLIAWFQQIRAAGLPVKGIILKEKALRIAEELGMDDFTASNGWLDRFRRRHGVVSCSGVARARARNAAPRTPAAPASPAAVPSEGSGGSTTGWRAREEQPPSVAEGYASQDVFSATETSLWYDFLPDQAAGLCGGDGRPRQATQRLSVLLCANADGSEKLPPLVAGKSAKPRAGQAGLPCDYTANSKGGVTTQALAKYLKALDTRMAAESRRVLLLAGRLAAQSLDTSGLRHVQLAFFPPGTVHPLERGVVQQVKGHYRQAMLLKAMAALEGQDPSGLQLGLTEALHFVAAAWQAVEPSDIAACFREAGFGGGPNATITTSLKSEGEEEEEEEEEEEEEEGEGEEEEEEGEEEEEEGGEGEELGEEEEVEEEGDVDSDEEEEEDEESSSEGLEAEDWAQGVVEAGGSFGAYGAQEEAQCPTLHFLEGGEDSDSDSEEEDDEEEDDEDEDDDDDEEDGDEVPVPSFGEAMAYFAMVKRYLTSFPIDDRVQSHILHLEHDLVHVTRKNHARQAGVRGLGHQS
The assay can be described thus: AtheNA Multi-Lyte ANA, Ab at 25 ug/ml.

B1: Ab7968 (antibody, IgG1, V domains shown)
VH: LVESGGGVVQPGRSLRLSCAASGFTFSRYGMHWVRQAPGKGLEWVAVMSYDGSTKYYADSVKGRFAISRDNPKNTLFLQMNSLRPDDTAVYYCAKGGAAAAVMDVWGKGTTVTVSS
VL: MTQSPDSLTVSLGERATISCKSSQRLLYSSNNKNYLAWYQQKPGQPPKLLMYWASTRESGVPDRFSGSGSGTDFSLTISSLQAEDVAVYYCQQYYNPPWTFGQGTKVEVK
notes: Recombinant human antibody with IgG1 heavy chain backbone and kappa light chain constant; they begin at LVESGGG and MTQSP; also called mAb 7968; mAb7968
The term Kd denotes the free concentration of one partner at which half of the binding sites on the other are occupied at equilibrium, for simple one-to-one binding. The low end stands for higher affinity, the high end for lower affinity. The term koff denotes the first-order rate constant of dissociation. The kon is the second-order rate constant of association. As to B1, in assay [1], the AtheNA signal was found to be 3. In [2], the binding result is “binds”. Besides, in assay [3], the Kd was ~2.5 pM and 2.46 pM; the off-rate (koff) amounted to 5.56e-07 s⁻¹; the kon was 226000 M⁻¹ s⁻¹.

B2: Ab7962/293i (antibody, V domains shown)
VH: LVESGGGLVQPGGSLRLSCAASGFTFSSYEMNWVRQAPGKGLEWVSYISSSGSTIYYADSVKGRFTISRDNAKNSLYLQMNSLRAEDTAVYYCARVEQLAPSPYMDVWGKGTTVTVSS
VL: MTQSLDSLTVSLGERATINCKSSQSLLYTSNNKNYLAWYQQKSGQPPKLLIYWASIRDSGVPDRFSGSGSATDFTLTINNLQAEDVAVYFCQQYYKTPLTFGGGTKVEVR
notes: Recombinant human antibody with IgG1 heavy chain backbone and kappa light chain constant (IgM in the donor B cell); they begin at LVESGGG and MTQSL; also called clone 27; pH007962/pK005996
Take B2: the binding result in assay [4], in [5] and in assay [6] was “no binding (tested: 0.5 µg/ml)” throughout.

B3: Ab7957/293i (antibody, IgG1, V domains shown)
VH: LVESGGGVVPPGKSLRLSCAASGFTFSLYGIHWVRQAPGKGLEWVAVISYDGNTKYYTDSVKGRFTISRDNAKNTIYLQMNSLRLDDTAVYYCAKGAANSATFDFWGRGTMVTVSS
VL: MTQSPDSLTLSLGERATINCRSSRTVLYRSNNKNYLAWYQHKPGQPPKLLMSWASTRETGVPDRFSGSGSGTHFTLTITSLQPEDVAVYYCQQYYSPPWTFGQGTKVEIR
notes: Recombinant human antibody with IgG1 heavy chain backbone and kappa light chain constant; they begin at LVESGGG and MTQSP; also called Ab7957i; mAb 7957
Consider B3, for which the binding result in assay [7], in assay [8] and in [2] was “binds” throughout. Also, the AtheNA signal (in assay [1]; with centromere B (CentB)) was 2 in each case.
